Results from patent US11339383B2, “G proteins” (HEPTARES THERAPEUTICS LIMITED, priority 2016, dated 2022).
Residue numbers refer to the chain shown, from its start. Names may count otherwise.

B1: Mini Gs393 (protein)
chain: MGHHHHHHENLYFQGIEKQLQKDKQVYRATHRLLLLGADNSGKSTIVKQMRILHGGSGGSGGTSGIFETKFQVDKVNFHMFDVGGQRDERRKWIQCFNDVTAIIFVVDSSDYNRLQEALNDFKSIWNNRWLRTISVILFLNKQDLLAEKVLAGKSKIEDYFPEFARYTTPEDATPEPGEDPRVTRAKYFIRDEFLRISTASGDGRHYCYPHFTCAVDTENARRIFNDCRDIIQRMHLRQYELL
modifications: N-terminal His tag, TEV site; MINI GS393
B2: Mini-Gs/i143: mini-Gs with 9 α5 helix mutations changing coupling specificity to Gi1; SEQ ID NO:111 (protein)
chain: B1 chain with C228V, R229T, Q233I, R234K, H236N, Q239D, Y240C, E241G, L243F
modifications: Mini-Gs/i143
B3: Mini-Gs/q57: mini-Gs with five C-terminal residues changed to Gαq (Q390E, E392N, L394V) (protein)
chain: B1 chain with Q239E, E241N, L243V
modifications: Mini-Gs/q57
B4: Mini-Gs/q58: mini-Gs with final 19 residues of α5 helix changed to those in Gαq (13 mutations) (protein)
chain: MGHHHHHHENLYFQGIEKQLQKDKQVYRATHRLLLLGADNSGKSTIVKQMRILHGGSGGSGGTSGIFETKFQVDKVNFHMFDVGGQRDERRKWIQCFNDVTAIIFVVDSSDYNRLQEALNDFKSIWNNRWLRTISVILFLNKQDLLAEKVLAGKSKIEDYFPEFARYTTPEDATPEPGEDPRVTRAKYFIRDEFLRISTASGDGRHYCYPHFTCAVDTENARRIFAAVKDTILQLNLKEYNLV
modifications: Mini-Gs/q58
B5: Mini-G128: mini-G protein of G12, construct 8; SEQ ID NO:114 (protein)
chain: MGHHHHHHENLYFQGIDALLARERRAVRRLVKILLLGADNSGKSTFLKQMRIIHGGSGGSGGTKGIVEHDFVIKKIPFKMVDVGGQRSQRQKWFQCFDGITSILFMVDSSDYNRLVESMNDFETIVNNKLFFNVSIILFLNKMDLLVEKVKTVSIKKHFPDFRGDPHRLEDVQRYLVQCFDRKRRNRSKPLFHHFTTAIDTENARFIFHAVKDTILQENLKDIMLQ
modifications: Mini-G128
B6: Mini-Gs/q70: mini-Gs with R380K Q384L R385Q H387N Q390E E392N L394V (protein)
chain: GIEKQLQKDKQVYRATHRLLLLGADNSGKSTIVKQMRILHGGSGGSGGTSGIFETKFQVDKVNFHMFDVGGQRDERRKWIQCFNDVTAIIFVVDSSDYNRLQEALNDFKSIWNNRWLRTISVILFLNKQDLLAEKVLAGKSKIEDYFPEFARYTTPEDATPEPGEDPRVTRAKYFIRDEFLRISTASGDGRHYCYPHFTCAVDTENARRIFNDCKDIILQMNLREYNLV
B7: Mini Gs77 (protein)
chain: MGHHHHHHANKKIEKQLQKDKQVYRATHRLLLLGAGESGKSTIVKQMRILHVNGGGDQDALRSRVLTSGIFETKFQVDKVNFHMFDVGGQRDERRKWIQCFNDVTAIIFVVASSSYNMVIREDNQTNRLQEALNLFKSIWNNRWLRTISVILFLNKQDLLAEKVLAGKSKIEDYFPEFARYTTPEDATPEPGEDPRVTRAKYFIRDEFLRISTASGDGRHYCYPHFTCAVDTENIRRVFNDCRDIIQRMHLRQYELL
modifications: MINI GS77

Assays:
β1AR-84 [1] = target: T1, β1AR-84 (Meleagris gallopavo, UniProt P07700, C116L/C358A/D322K/DEL244-271/F327A/F338M/M44C/M90V/V103C); experiment: Saturation binding assay, ^3H-DHA binding to β1AR-84; design: species or system turkey; conditions: insect cell membranes, 20° C.
T1 construct: His6 (C); made in house; host or cells: Trichoplusia ni (High Five) insect cells, BaculoGold baculovirus
T1 sequence (P07700 other isoform, or with tags, fused parts or gaps M44C/M90V/V103C/C116L/DEL244-271/D322K/F327A/F338M/C358A): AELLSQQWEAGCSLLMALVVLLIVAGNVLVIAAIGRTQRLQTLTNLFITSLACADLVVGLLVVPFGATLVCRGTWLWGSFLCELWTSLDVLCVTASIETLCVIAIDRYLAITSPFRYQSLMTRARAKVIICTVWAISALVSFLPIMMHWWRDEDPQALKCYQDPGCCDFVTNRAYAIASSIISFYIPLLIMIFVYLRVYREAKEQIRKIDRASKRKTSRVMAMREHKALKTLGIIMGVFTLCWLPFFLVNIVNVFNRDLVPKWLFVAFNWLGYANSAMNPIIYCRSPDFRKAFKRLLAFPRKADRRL
Procedure: FIG. 2. Saturation binding data for β1AR constructs. […] Data represent mean±SEM of three independent experiments. Curves shown are from a representative experiment performed in duplicate.
Insect cells expressing β1AR were resuspended in 1 ml of assay buffer (20 mM HEPES, pH 7.5, 100 mM NaCl), supplemented with Complete EDTA-free protease inhibitors (Roche). Cells were broken by 10 passages through a bent 26 G needle. Cell debris was removed by centrifugation (3000 g for 5 mins at 4° C.). The supernatant was diluted and 2×0.96 ml aliquots taken for each sample. Alprenolol (120 μl) was added to the negative sample (1 mM final concentration) and assay buffer (120 μl) was added to the positive sample. Samples were aliquoted (12×108 μl) into a PCR plate. [^3H]-dihydroalprenolol (12 μl) was added to each well (to give final concentrations in the range: 2.5 nM-2.56 μM). Samples were mixed and incubated at 20° C. for 2 h. Samples (2×50 μl duplicates) were vacuum filtered through 96-well glass fibre filter plates (Merck Millipore), pre-soaked with PEI (0.1%). Each well was washed with assay buffer (3×200 μl). Filters were dried, punched into scintillation vials and 4 ml Ultima Gold scintillant (Perkin Elmer) was added. Radioactivity was quantified by scintillation counting (1 min per sample) using a Tri-Carb counter (Perkin Elmer). Data for negative samples were subtracted from positive samples. […]

β1AR-84 [2] = target: T1, β1AR-84; assay type: binding, turkey; conditions: membranes
[3] = Thermostability of GDP-bound mini G proteins by differential scanning fluorimetry (DSF); assay type: physicochemical; conditions: mini-G protein alone, GDP-bound
Procedure: SYPRO-orange (15 μl) was added from a 20× stock solution to give a final concentration of 2×. Samples were mixed and 2×50 μl aliquots (duplicates) were transferred to 0.2 ml PCR tubes (Qiagen). Thermostability measurements were performed using a Rotor-Gene Q (Qiagen). Samples were equilibrated for 90 s at 25° C. before ramping from 25 to 99° C. at 4 s/° C. The melting temperature (Tm), corresponding to the inflection point of the curve, was derived from analysis using the Rotor-Gene Q software. Tm values were calculated as the mean±SEM from three independent experiments.
(§1) For constructs see FIGS. 29 and 35-37. Expression, purification and stability measurements by differential scanning fluorimetry (DSF) of the mini-G proteins as well as the non-lipidated Gβ1γ2 dimer, were performed following the protocols described in Example 1. The stability of mini-G proteins was also determined in detergent using native DSF (NanoTemper Prometheus). Mini-G proteins (2 mg/ml) in 50 mM HEPES pH 7.5 (KOH), 20 mM MgCl2, 50 mM NaCl, 1 μM GDP were mixed with either no detergent (control), 0.1% LMNG or 0.1% DDM. Samples were incubated on ice (minimum 30 min) prior to heating on the Prometheus (20% excitation, 15° C.-85° C., rate of 2.0° C./min) and the onset of scattering determined.

[4] = Stability of mini-G proteins in detergent by native DSF; assay type: physicochemical; conditions: 2 mg/ml, onset of scattering
Procedure: as §1

A2AR = A2AR (Homo sapiens, UniProt P29274, N154A); experiment: Thermostability assay of ^3H-NECA-bound A2AR
Chain of A2AR (P29274 1-317 N154A): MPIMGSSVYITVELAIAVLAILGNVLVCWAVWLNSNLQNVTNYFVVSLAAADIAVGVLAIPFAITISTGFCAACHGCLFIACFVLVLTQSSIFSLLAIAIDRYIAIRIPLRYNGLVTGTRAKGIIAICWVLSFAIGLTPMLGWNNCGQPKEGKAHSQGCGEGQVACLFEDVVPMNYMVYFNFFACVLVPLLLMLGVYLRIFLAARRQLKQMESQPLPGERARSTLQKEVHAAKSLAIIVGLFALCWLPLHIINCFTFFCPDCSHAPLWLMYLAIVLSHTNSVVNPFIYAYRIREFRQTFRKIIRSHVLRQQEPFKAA
Procedure: The samples were incubated at room temperature for 1 h, then chilled on ice for 30 min. DDM, DM or OG were added to a final concentration of 0.1%, 0.13% or 0.8%, respectively, and samples were incubated on ice for 1 h. Cell debris was removed by centrifugation for 5 min at 20,000×g and the supernatant was aliquoted into PCR strips. Samples were heated to the desired temperature for exactly 30 min, then quenched on ice for 30 min. Samples (50 μl) were loaded onto gel filtration resin packed into a 96-well filter plate (Millipore), which was centrifuged to separate receptor-bound from free radioligand. […] Data were analyzed by nonlinear regression using GraphPad Prism software. Apparent Tm values were derived from sigmoidal dose-response analysis. Results represent the mean±SEM of two independent experiments, performed in duplicate.
Samples were heated to the desired temperature for exactly 30 min, then quenched on ice for 30 min. Samples (50 μl) were loaded onto gel-filtration resin (Toyopearl HW-40F) packed into a 96-well filter plate (Millipore), which was centrifuged to separate receptor-bound from free radioligand [28]. […] Data were analysed by nonlinear regression using GraphPad Prism software. Apparent Tm values were derived from sigmoidal dose-response analysis performed by non-liner regression. Results represent the mean±SEM of two independent experiments, performed in duplicate.

NTSR1 = target: T2, NTSR1 (Rattus norvegicus, UniProt P20789); experiment: Thermostability assay of ^3H-NTS-bound NTSR1; assay type: biochemical; conditions: DDM-solubilized
T2 construct: the wild-type rat NTSR1 (residues 43-396) and a C-terminal His10 tag; hemagglutinin signal peptide (N); Flag (N); His10 (C); made in house; host or cells: Trichoplusia ni insect cells, baculovirus (modified pFastBac1)
T2 sequence (P20789 43-396): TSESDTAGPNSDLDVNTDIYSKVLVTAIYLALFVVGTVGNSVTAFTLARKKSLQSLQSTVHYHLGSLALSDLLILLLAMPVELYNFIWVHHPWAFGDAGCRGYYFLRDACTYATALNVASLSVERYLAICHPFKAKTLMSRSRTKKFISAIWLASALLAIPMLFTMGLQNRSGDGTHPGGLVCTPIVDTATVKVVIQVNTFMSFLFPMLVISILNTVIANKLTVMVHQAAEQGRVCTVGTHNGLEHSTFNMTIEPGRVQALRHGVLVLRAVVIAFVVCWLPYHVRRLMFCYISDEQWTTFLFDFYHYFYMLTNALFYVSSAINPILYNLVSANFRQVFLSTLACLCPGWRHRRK
Procedure: The samples were placed on a rotating mixer at 4° C. for 1 hour. Cell debris and non-solubilized material were removed by ultracentrifugation (152,800×g, 4° C., 30 min), and the supernatant containing detergent-solubilized NTSR1 was used to test for thermal stability in the presence of NTS and mini-G proteins. For thermal denaturation curves, the supernatants were diluted 6.67-fold into assay buffer (50 mM TrisHCl pH 7.4, 100 mM NaCl, 1 mM MgCl2) containing 22.5 μM mini-G protein and 10 nM ^3H-NTS and incubated for 1 hour on ice. After addition of apyrase (0.25 units/ml, NEB), the sample was placed on ice for an additional 30 min. Samples (120 μl aliquots) were exposed to different temperatures between 0° C. and 60° C. for 30 min and placed on ice. […] Control reactions on ice were recorded at the start and at the end of each denaturation experiment. The percentage of activity remaining after heat exposure was determined with respect to the unheated control. Data were analyzed by nonlinear regression using a Boltzmann sigmoidal equation in the Prism software (GraphPad).

| Molecule | Stability measured by DSF [3] [°C] | Stability in detergent measured by native DSF, 0.1% DDM [4] [°C] | Stability in detergent measured by native DSF, 0.1% LMNG [4] [°C] | Stability in detergent measured by native DSF, No detergent [4] [°C] | coupling of mini-Gs/q chimera to A2AR (thermostability assay and SEC) (A2AR) | other results |
| --- | --- | --- | --- | --- | --- | --- |
| CCCc1ccccc1OCC(O)CNC(C)C (stereo not shown) [^3H-DHA, ^3H-dihydroalprenolol] |  |  |  |  |  | Kd (β1AR-84 [1]): 20 ± 3 nM |
| Gs: non-lipidated Gs (Gαsβ1γ2) heterotrimer [reference compound] |  |  |  |  |  | shift of isoprenaline Ki of β1AR-84 in response to binding partner, 20° C. (β1AR-84 [2]; relative to uncoupled […]): 9.6 fold |
| B1 | 65.3 ± 0.0 | 39.1 ± 0.0 | 44.9 ± 0.2 | 47.7 ± 0.2 |  | GTP-mediated dissociation of β1AR-84 complexes (β1AR-84 [2]; 0.25 mM GTPγS): completely resistant |
| B2 | 69.0 ± 0.1 | 35.9 ± 0.1 | 41.1 ± 0.1 | 44.8 ± 0.0 |  |  |
| B3 |  |  |  |  | still observed |  |
| B4 |  |  |  |  | did not couple | shift in the thermostability of NTSR1 (NTSR1): no significant shift |
| B5 | 73 | 41.2 ± 0.2 | 46.0 ± 0.1 | 50.3 ± 0.1 |  | Stability measured by DSF ([3]; listed as Gl2 8): 72.6 ± 0.3 °C |
| B6 | 67.2 ± 0.4 | 36.2 ± 0.1 | 44.2 ± 0.2 | 47.2 ± 0.3 | no binding |  |
| B7 |  |  |  |  |  | shift of isoprenaline Ki of β1AR-84 in response to binding partner, 4° C. (β1AR-84 [2]; relative to uncoupled […]): 21 fold |
